Patent publication EP1242600B1 (ZymoGenetics, Inc., dated 2001)
Values joined by “and” are separate entries in the source; they are usually repeats but may differ in a detail not shown here. Identical values can stand only once.

Biological target: T1, CRF2-4/zcytor11 heterodimeric receptor on BaF3/CRF2-4/zcytor11 cells (human, UniProt Q08334 20-325, limits assumed)
T1 sequence 1: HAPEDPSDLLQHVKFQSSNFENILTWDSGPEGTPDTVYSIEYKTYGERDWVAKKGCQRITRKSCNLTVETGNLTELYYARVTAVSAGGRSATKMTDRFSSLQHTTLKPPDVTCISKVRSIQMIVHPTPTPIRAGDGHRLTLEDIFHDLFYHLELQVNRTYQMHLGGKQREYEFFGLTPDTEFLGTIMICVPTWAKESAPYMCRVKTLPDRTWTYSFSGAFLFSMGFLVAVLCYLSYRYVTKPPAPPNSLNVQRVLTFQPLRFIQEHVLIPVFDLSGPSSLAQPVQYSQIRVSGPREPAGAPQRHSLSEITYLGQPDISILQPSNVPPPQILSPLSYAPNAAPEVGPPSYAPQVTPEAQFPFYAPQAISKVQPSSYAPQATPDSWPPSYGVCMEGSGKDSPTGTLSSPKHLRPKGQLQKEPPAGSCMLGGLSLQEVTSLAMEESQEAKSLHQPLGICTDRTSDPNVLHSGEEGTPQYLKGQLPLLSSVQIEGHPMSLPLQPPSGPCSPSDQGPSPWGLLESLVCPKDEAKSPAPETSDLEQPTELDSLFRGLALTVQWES
T1 sequence 2: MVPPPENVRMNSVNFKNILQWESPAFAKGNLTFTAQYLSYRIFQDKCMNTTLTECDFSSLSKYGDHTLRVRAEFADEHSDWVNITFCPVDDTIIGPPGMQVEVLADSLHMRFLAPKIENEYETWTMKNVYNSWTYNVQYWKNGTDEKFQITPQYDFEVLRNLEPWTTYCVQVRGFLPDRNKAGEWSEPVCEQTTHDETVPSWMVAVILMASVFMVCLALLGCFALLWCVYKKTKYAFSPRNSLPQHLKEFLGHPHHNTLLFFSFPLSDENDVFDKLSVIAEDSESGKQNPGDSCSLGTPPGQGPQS
Assay: cell-based or functional assay

B1: ZCYTO18-CEE polypeptide purified from BHK 570 cells (ligand)
chain: APISSHCRLDKSNFQQPYITNRTFMLAKEASLADNNTDVRLIGEKLFHGVSMSERCYLMKQVLNFTLEEVLFPQSDRFQPYMQEVVPFLARLSNRLSTCHIEGDDLHIQRNVQKLKDTVKKLGESGEIKAIGELDLLFMSLRNACIEYMPME
proliferation of BaF3/CRF2-4/zcytor11 cells (Alamar Blue): ~15 fold over background and 2 fold induction
